Results: patent US6890526B2, “Methods and reagents for the treatment of multiple sclerosis” (Vanderbilt University, priority 1997, dated 2005)

Columns and labels:
[1] = test system: MOMP gene of C. pneumoniae; assay: PCR/Southern hybridization of CSF for the MOMP gene; settings: CSF PCR signal for the MOMP gene of C. pneumoniae after antibiotics; all patients PCR-positive before therapy
Protocol: To at least 300 μl of CSF sample, 200 μl of HBSS containing 0.25% trypsin and 1 mM EDTA at pH 7.2 was added to achieve a final concentration of 0.1% trypsin, and the sample vortexed and then incubated at 37° C. for 30 minutes. Following incubation, the sample was again vortexed, centrifuged for 45 minutes at 12,000×g in a microcentrifuge, and the pellet resuspended in 20 μl of lysis buffer (0.5% sodium dodecylsulfate (SDS), 1% NP40, 0.2 M NaCl, 10 μM DTT, 10 mM EDTA, 20 mM Tris-HCl at pH 7.5). To this was added 8 μl of proteinase K (20 μg/ml; Boehringer-Mannheim, Indianapolis, Ind.), after which the specimen was mixed and incubated overnight at 37° C. […]
PCR was carried out using the entire MOMP gene (1.2 kb) using Deep Vent polymerase in the manufacturer's buffer (New England Biolabs, Boston, Mass.) with no additional MgCl2. […] PCR reactions were analyzed by electrophoresis in 1% agarose gel for 45 minutes at 95 volts. For confirmation and enhanced sensitivity, the gels were further analyzed by Southern hybridization using a digoxigenin-labeled (DIG, Boehringer-Mannheim) MOMP gene probe from the TWAR strain of C. pneumoniae (ATCC VR-1310). […]
Nested PCR primers were chosen within the MOMP which are C. pneumoniae specific (located in variable domains 1 and 4) and yield a 727 bp band. […] PCR reactions were analyzed by electrophoresis in 1% agarose gel for 45 minutes at 95 volts. […]

MS patients [2] = assay: Treatment of MS patients with combinations of anti-chlamydial agents, case histories (Tables 8-10); type: in vivo, human; settings: patient; drug stopped, later phased back in
Text: The case histories for these patients are described in Table 9.

MS patients [3] = assay: Long-term combination therapy of 12 progressive MS patients, EDSS (Table 11); type: in vivo, human; settings: patient #12; azithromycin substituted
Protocol: All 12 patients were positive by PCR for the MOMP gene of C. pneumoniae in the CSF. In 10 of 12 patients, the highest Expanded Disability Status Scale (EDSS; Kurtzke, Neurology 33:1444-1152, 1983) score reached was sustained for six months. […] The antibiotic regimen in eight of 12 patients was a combination of rifampin (300 mg twice daily), amoxicillin (500 mg twice daily) and probenecid (500 mg daily).

IL-12/p40 = assay: Sandwich ELISA for IL-12/p40 in macrophage culture supernatants; type: cell-based, mouse
Protocol: (§1) Splenocytes were washed twice in PBS and plated in 24-well culture plates (Corning, Corning, N.Y.) in Dulbecco's minimal essential medium (DMEM; GIBCO BRL, Gaithersburg, Md.) containing 10% fetal calf serum (FCS; Hyclone, Logan, Utah) at 37° C. for two hours. Non-adherent cells were washed away by gentle rinsing in warm medium, and the macrophages were allowed to adhere to the plastic wells overnight. For optimal growth of macrophages, colony stimulating factor-1 (CSF-1) obtained from culture supernatants of LADMAC cells (American Type Tissue Collection (ATCC), Manassas, Va.) was added to reach a final concentration of 20%. After reaching confluence, cells were removed from the plastic wells by gentle trituration and examined for their purity by staining with fluoroscein-conjugated anti-CD11b and anti-I-As (clone 10-3.6) antibodies.
IL-12/p40 in culture supernatants was quantitated using sandwich ELISA methodology. Antibody C17.15 was coated onto ELISA plates at 2 μg/ml in 100 μl of carbonate buffer at pH 9.3. After overnight incubation at 4° C., excess antibody was washed off, and the plates were blocked by addition of PBS containing 3% BSA. Samples and standards were plated in triplicate and incubated overnight at 4° C. […] The absorbance was read at 405 nm and sample concentrations of IL-12/p40 were calculated from a rIL-12/p40 standard curve.

iNOS (NOS2) gene = assay: RT-PCR for iNOS (NOS2) gene products in splenic macrophages; type: cell-based, mouse; settings: β-IFN alone; compared with GAPDH mRNA (FIG. 12A)
Protocol: as §1
Mouse splenic macrophages were homogenized in TRI reagent (Molecular Research Center, Cincinnati, Ohio), and total RNA was extracted according to the manufacturer's protocol. […]

iNOS = assay: Measurement of NO production (nitrite, Greiss reagent) in splenic macrophage culture supernatants; type: cell-based, mouse
Protocol: as §1
EB antigens were prepared from concentrated C. pneumoniae EBs by treating them with 25 mM DTT, 2% 2-mercaptoethanol, and 2% dodecylsulfate (SDS) for 5 minutes at 100° C. Treated EBs were sonicated, centrifuged (500×g for 30 minutes at room temperature) and the supernatant resuspended at 2 μg/ml protein in PBS pH 7.4. Concentrated C. pneumoniae EBs were obtained by growing C. pneumoniae (VR-1310; ATTC) in 25 ml flasks containing a confluent growth of HL cells (Human Lung Carcinoma Cells; Washington University Foundation, Seattle, Wash.) in DMEM and 10% FCS . Infection was facilitated by two washes with Hank's balanced salt solution (HBSS; GIBCO) followed by a 20 minute pre-incubation with diethylaminoethyl-dextran (30 μg/ml) (DEAE-Dextran; GIBCO) in HBSS. The infectious inoculum (ATCC VR-1310) was added to the flasks in 2 ml of serum-free media. The flasks were then centrifuged at 1,200×g for 1 hour at 4° C. To the spun flasks was added 2 ml of Iscoves medium (GIBCO) containing 4 μg/ml cyclohexamide, 20% FCS, 4 mM L-glutamine (Sigma), and 100 μg/ml gentamicin (Sigma). The flasks were then incubated at 35° C. for three days at which time the infected cells begin to lyse and release EBs. On day 4, the culture flasks were sonicated for 20 seconds, and the cell debris removed by centrifugation at 600×g for five minutes at room temperature. The supernatant containing the infectious EBs was centrifuged at 18,000×g for 30 minutes, and the pellet resolubilized in water containing 25 mM DTT, 2% 2-mercaptoethanol, and 2% SDS.
Preparation of purified rMOMP was performed as follows. The full-length native C. pneumoniae MOMP gene was expressed in the pET-32/a (+) E. coli expression system using a polyhistidine tag (Novagen, Madison, Wis.). Briefly the MOMP was amplified under the same PCR conditions with a NcoI extension on the forward primer and a NotI extension on the reverse primer. The 5′ to 3′ sequence of the forward primer was AGCTTACCATGGTGAATGAAAAAACTCTTAAAGTCGGCG (SEQ ID NO: 9) and the reverse primer was ATATGCGGCCGCTCATTAGAATCTGAACTGACCAGATACG (SEQ ID NO: 10). The product was cut with NotI and NcoI and ligated into the multiple cloning site in a previously linearized pET vector. E. coli was transformed and selectively grown, lysed with a French press, and the protein extract was run over a Ni-chelate column and eluted with […]. […]
NO is rapidly oxidized to nitrite in culture medium. […] After a 10 minute incubation at room temperature, the absorbance was read at 550 nm. Nitrite concentrations were calculated from a sodium nitrite standard curve.

With `CC[C@H]1OC(=O)[C@H](C)[C@@H](O[C@H]2C[C@@](C)(OC)[C@@H](O)[C@H](C)O2)[C@H](C)[C@@H](O[C@@H]2O[C@H](C)C[C@H](N(C)C)[C@H]2O)[C@](C)(O)C[C@@H](C)CN(C)[C@H](C)[C@@H](O)[C@]1(C)O` [azithromycin] the “PCR Signal Post-antibiotics” value [1] was “Absent”.

With `Cc1ncc([N+](=O)[O-])n1CCO` [metronidazole, Metronidazole] the side effects (MS patients [2]) was “side effects”.

In the case of `CO[C@H]1/C=C/O[C@@]2(C)Oc3c(C)c(O)c4c(O)c(c(/C=N/N5CCN(C)CC5)c(O)c4c3C2=O)NC(=O)/C(C)=C\C=C\[C@H](C)[C@H](O)[C@@H](C)[C@@H](O)[C@@H](C)[C@H](OC(C)=O)[C@@H]1C` [rifampin], the side effects (MS patients [3]) is reported as “gastrointestinal side effects”.

B1: β-IFN: Murine β-IFN obtained commercially (Bio-Source International); type-1 interferon (protein, UniProt P01575 22-182, looked up)
Interferon beta: INYKQLQLQERTNIRKCQELLEQLNGKINLTYRADFKIPMEMTEKMQKSYTAFAIQEMLQNVFLVFRNNFSSTGWNETIVVRLLDELHQQTVFLKTVLEEKQEERLTWEMSSTALHLKSYYWRVQRYLKLMKYNSYAWMVVRAEIFRNFLIIRRLTRNFQN
For B1, the “suppression of induction of IL12/p40” value (IL-12/p40; 10 U of β-IFN, EB antigens) was 78%, the IL-12/p40 levels (IL-12/p40; macrophages pretreated with β-IFN, then EB antigens for 48 hours (FIG. 14)) was 1.5 ± 0.09 ng/mL and the “RT-PCR signals for NOS2 gene” value (iNOS (NOS2) gene) was “increased RT-PCR signals for NOS2 gene”. For the same molecule, the nitrite levels (iNOS; 10 U of β-IFN added to EB antigen-treated macrophages, 48 hours (FIG. 10)) was 27.3 ± 0.4 µM, the “increase in NO” value (iNOS; 10 U of β-IFN, macrophages cultured with LPS) was 35% and the “increase in the nitrite level” value (iNOS; 10 U of β-IFN, macrophages incubated with 2 μg/ml of rMOMP) was 47%. For the same molecule, the “nitrite levels in supernatants” value (iNOS; prior addition of 1000 U of β-IFN to EB antigen-treated cultures, 48 hours (FIG. 9)) was 19.6 µM and the “nitrite levels in macrophage culture supernatants” value (iNOS; β-IFN alone, no antigen) was “did not increase nitrite levels”.
